Molecular target: NKp30 (species and construct not stated) (UniProt O14931)
Test: ELISA
Conditions: ligand

NKp30 (species and construct not stated), sequence (O14931 19-135): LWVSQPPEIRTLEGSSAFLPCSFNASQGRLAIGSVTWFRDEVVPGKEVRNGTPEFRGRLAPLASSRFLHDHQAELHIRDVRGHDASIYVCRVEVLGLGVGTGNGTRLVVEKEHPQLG
B7-H6, sequence (Q68D85 25-262): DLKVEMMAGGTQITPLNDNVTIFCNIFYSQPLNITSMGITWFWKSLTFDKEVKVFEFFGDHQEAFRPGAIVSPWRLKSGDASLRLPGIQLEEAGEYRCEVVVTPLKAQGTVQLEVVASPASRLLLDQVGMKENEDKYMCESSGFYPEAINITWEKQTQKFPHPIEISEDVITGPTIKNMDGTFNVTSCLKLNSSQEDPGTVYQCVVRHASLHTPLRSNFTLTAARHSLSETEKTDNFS

## B7-H6 (from UniProt Q68D85 25-262)
  Kd: 6.56 nM

— US20230357395A1
